Source: the DeepSol protein solubility set

Assay: soluble on expression in E. coli; label from the status in PepcDB or PDB records

Soluble on expression in E. coli, not soluble:
MGSDKIHHHHHHMSLCYEEALFLEKDLERLKALRTIAPMNEILDHAEVAALAEGIGKAVLGETITQVIDDYRKQLLGDKSFAASMSHLSRQEITLHLVQELKDKLDAQDSTCLKKLINATGIVLHTNLGRAPLPDSAIGLIQEVNEGYSNLEFDLETGNRGSRHTHIEPLITRLTGAESAMVVNNNAAAVFISLNTLAKQRDVIISRGQQVEIGGSFRIPDIIASSGCTMIEVGTTNKTKPDDYAKAITENTAVLLKVHTSNYKISGFTEEVPLQDLVELGKIKNVLVMEDLGSGCLYDLSKIGLPHEPTVQEVIAGGADLVTFSGDKLLGGPQIGVIAGKKALIDKIKKNSFARIVRCDKSSIAALTAVLKLYMNPEKALAQIPALNMLALKEADLLLRAEELERQLQAALGERCQVEIVDVHDEAGGGSLPDVLLKGKAVSLTIDGLSANRLQELLRQEPIPIICRIVKDKVLLNVRTMSEKEFPLITQTMQNIVG
MGSDKIHHHHHHMSLLSVEHLSHGFADKELYEDANFELNKEDHMGIVGQNGAGKSTLIKILTGETLPDKGRIIWQNKVTYGYLDQYADIPKEDTLYEFLTTAYAELFRQRDLMEKYYADYAENLDDKLLEKAGRIQENLDANNFYDIDTEINRVMTGLGLDDIGKDHIVSEMSGGQRSKIILAKLLLQNPDVLILDEPTNYLDTAHISWLADYLNGFEGAFMVISHDYDFLQKVTNCICDVSFNKITKYRGDFQSAMRQKDARKEAQLKAFEKQQVVIEKAENFIRKNKAGQRSTMAKSREKMLNRMEKIDPPSENLKGHFDFPYLDTGSQNAVAVNKLAVGYGKKQLLEPVTFSMSAGEKVAFSGFNGAGKSTLIKSILGVIPALGGEAHFSPSAKVNYFTQELIWDNPKLTPLETIQNQYPKMLPKTIRTKLAKCGINAADTMKPMKQLSGGEQTKVKLALMELIDSNFLIMDEPTNHLDDETKRALSEALQRFKGNLIVVSHEDSFYSQWIDKEINVEKLRLDRE
MGSDKIHHHHHHMSLPSIKTTNSYCVVLWCDQGSATINAPDRVVQVMAGDVVLAPHGAFVTGHGVVLPMAFPDFDGGEHTRRLHMGTAWSKRMIFEFSRSLLGETRPSECIAALFDDRARPPRVPEPQAARKVAQKLIAYPADQTPLLEFAQLHNISSRTLQRQFVASTGFTFSEWRAALRVSVAADLLAHDFRIGQVSQMVGFSATSSLTRAFKRHTGDTPSSFTSPRMHAVCEQQPPMIPATTTFARASDDIALWIYSGTATVTTPGYCRFMGAGETVTIPSGTSTRLDVSAGSVALPVPLAAAHDDLTLSDVLAASVNPLAAVELQRLSAQERADVEQVLVPSV
MGSDKIHHHHHHMSLQSLKINFAEWLLLKVKYPSQYWLGAADQPVKAAAHQKKIILTLLPSHDNLGDHAIAYASKAFLEQEYPDFDIVEVDMKDIYKSAKSLIRSRHPEDMVFIIGGGNMGDLYRYEEWTRRFIIKTFHDYRVVQLPATAHFSDTKKGRKELKRAQKIYNAHPGLLLMARDETTYQFMKQHFQEKTILKQPDMVLYLDRSKAPAEREGVYMCLREDQESVLQEEQRNRVKAALCEEFGEIKSFTTTIGRRVSRDTREHELEALWSKLQSAEAVVTDRLHGMIFCALTGTPCVVIRSFDHKVMEGYQWLKDIPFMKLIEHPEPERVTAAVNELLTKETSRAGFPRDVYFKGLRDKISGEAQ
MGSDKIHHHHHHMSMNSEPTPAEAFFLEGNRLLAASECRAAEACFREALALAPDFAEAHANLGMLLDQEGMAAEAERQYRLALALNPRLGHTHSNLGVLLANQKRFEEAESAYLSAIELEPDSPAAWSNLGVLQACRKQEREAEESYRTALRLDPDYHRASFNLSYLLLRQGRFDEGWSLLESRNRRWFARLEEHLPCPRWRGEDLQGRSLLIGLEAGHGDMIQFCRYAPLLKDRGAARITLVCHVALKDLLKTLDGVDTVISFDEILPDDAWDFWTPAMSIPCYCRTRLDSIPARIPYLHADPGLAEQWAAMLEREWAGPEMRIGLAWKGNPHFENDGDRSLPHLKTLEPLGAVAGVRFFSLQKGAGEEEAAQPPAGLPVVNLMRHIAGFADTAALVANLDLVITVDTAVAHLAGALGTECWVLLPEYRTDWRWLTGRTDSPWYPGVMRLFRQPRVGDWETVVAEVGEALRLFAARPRSPRGTR
